Entries after “also recorded” stand apart in the source; their conditions may differ.
What was measured:
CHO cells [1] = assay: Deletion analysis, cell death by trypan blue exclusion; format: cell-based, Chinese hamster; conditions: 10 μg construct, trypan blue exclusion 48 hours after transfection
Description: The amino-terminal portion of Bit1 (residues 16-40) is hydrophobic and can serve as a transmembrane domain or signal peptide sequence. When the hydrophobicity of this portion was reduced by substitution of glycine 22 and glycine 38 by serine, Bit1 apoptotic activity was reduced.
Deletion analysis was performed as follows. The indicated deletion mutants were cloned into vector pEGFP-C1, and 10 μg of each plasmid construct transfected into CHO cells. Cell death was measured by trypan blue exclusion 48 hours after transfection.
To delineate the pro-apoptotic domain of AES, a series of AES deletion mutants was prepared as amino-terminal fusions with GFP in vector pEGFP-C1. Various AES deletion constructs (10 μg) were transfected into CHO cells, and cell death measured by trypan blue exclusion 48 hours after transfection.

[2] = tested on: Bit1-induced apoptosis in HEK 293 cells; assay: Co-transfection of Bit1 with anti-apoptotic proteins; format: cell-based, human; conditions: HEK 293 cells co-transfected with Bit1
Description: Co-transfections were performed with cells plated on non-coated dishes transfected with 5 μg Bit1 plasmid alone or together with 10 μg dominant negative (DN) R-Ras, or activated H-Ras plasmid (Zou et al., Proc. Natl. Acad. Sci. USA 96: 13813-13818 (1999)). […] Expression of the transfected proteins was confirmed by immunoblotting. Apoptosis was assayed as described above.

19,000 human cDNAs = assay: cDNA microarray analysis of ecdysone-induced Bit1 or AES cell lines; format: cell-based
Description: (§1) To determine whether the Bit1/AES pathway can regulate the transcription of genes other than Bcl-2, two stable cell lines were established expressing either-Bit1 or AES under control of an ecdysone-inducible promoter. To detect genes regulated by Bit1 or AES, probes were prepared from the ecdysone-induced cell lines and used to screen microarrays representing 19,000 human cDNAs. […] Down-regulation of HSP-70 and thymosin 4 in cells induced to express Bit1 or AES was confirmed by Northern blot analysis (see FIG. 7).
cDNA microarray analysis was performed as follows. Total RNA was purified 48 hours after treatment with 10 μM ponasterone A (Invitrogen; San Diego, Calif.) from the ecdysone inducible cell line ECR-293-Bit1 or ECR-293-AES according to the manufacturer's instructions (Qiagen; Valencia, Calif.). cDNA probes were generated and hybridized with a microarray containing 19,000 human cDNAs from Microarray Centre at University Health Network, Ontario Cancer institute. cDNAs were labeled with fluorescent dyes (Cy3 or Cy5) using reverse transcription. Arrays were processed and hybridized essentially as described in Iyer et al., Science 283:83-87 (1999). After hybridization, arrays were scanned to measure fluorescence using a ScanArray 4000 scanner (Perkin Elmer; Meriden, Conn.). Raw data files generated by scanner software were imported into ImaGene and Gene Spring for analysis. Experiments were performed in duplicate using color reversals.

Thymosin β-4 = assay: Northern blot of ecdysone-induced Bit1 or AES cell lines; format: cell-based, human; conditions: ecdysone-inducible ECR-293 cell line expressing Bit1 or AES
Description: as §1
(§2) Northern blot analysis was performed as follows. Total RNA (10 μg) was electrophoresed on a 1% agarose-formaldehyde gel and transferred to nitrocellulose filters. The filters were hybridized using the same RNA probes as in the microarray experiments in Rapid-hyb buffer and washed according to the manufacturer's instructions (Amersham-Pharmacia).

[3] = tested on: Heat Shock 70 kD protein 1A; assay: as above; format: cell-based, human; conditions: ecdysone-inducible ECR-293 cell line expressing Bit1 or AES
Description: as §1, §2

HEK 293T cells = assay: Percentage of GFP-positive detached cells after transfection; format: cell-based, human; conditions: 48 hours after transfection, GFP fusion construct
Description: (§3) To determine if Bit1 and AES are both required for apoptosis induction, HEK 293T, HOP92, and CHO cells were transfected with a GFP (vector), GFP-Bit1, or GFP-AES fusion protein constructs, as indicated in FIG. 3E. The cells were examined 48 hours (HEK 293T and CHO) or 72 hours (HOP92) after transfection, and the percentage of GFP-positive detached cells was measured.

Bcl-2 promoter = Bcl-2 promoter reporter assay in CHO cells; format: cell-based, Chinese hamster; conditions: CHO cells, 1 μg Bcl-2-luciferase reporter construct, 24 hours in culture
Source text: The entire CGI-147 open reading frame encodes a 27-kDa protein with no sequence similarity to other proteins. […] To denote this inhibitory transcriptional activity, the Clone-3 gene was denoted Bit1 for Bcl-2 inhibitor of transcription.

CHO cells [4] = assay: Scoring of rounded-up cells expressing GFP as dead cells; format: cell-based, Chinese hamster
Description: AES was assayed for pro-apoptotic activity in CHO cells transfected with a green fluorescent protein (GFP)-AES fusion protein. […] However, in HEK 293 cells, which express no detectable Bit1 by immunohistochemistry or Northern analysis, transfection of AES alone was not apoptotic.
Furthermore, apoptosis was measured in cells transfected with Bit1 (5 μg DNA), AES (5 μg DNA) or both (5 μg each). Rounded up cells expressing GFP were scored as dead cells 24 and 48 hours after the transfection.
To determine if TLE1 suppresses apoptosis induced by AES in CHO cells, cells were transfected with GFP-AES or GFP-TLE1 alone, or both. Cell death was assessed by scoring rounded-up cells expressing GFP 48 hours later.

CHO cells [5] = assay: Percentage of GFP-positive detached cells after transfection; format: cell-based, Chinese hamster; conditions: 48 hours after transfection, GFP fusion construct
Description: as §3

[6] = tested on: Bit1-induced apoptosis in HEK 293 cells; assay: Extracellular matrix proteins and Bit1-induced apoptosis, trypan blue staining; format: cell-based, human; conditions: HEK 293 cells plated onto coated dishes, 10 μg Bit1 plasmid, 48 hours
Description: Several extracellular matrix proteins were assayed for the ability to modulate Bit1-mediated apoptosis. Cells were plated onto bacterial culture dishes pre-coated overnight with fibronectin (Chemicon; Temecula; CA), vitronectin (SIGMA; St. Louis, Mo.) or type I collagen (SIGMA), and transfected and assayed for apoptosis as described above.
To analyze integrin involvement in protecting attached cells against the pro-apoptotic effect of Bit1, Bit1 cell lines expressing either α5β1 or αvβ1 as the main fibronectin receptor were compared. The two cell lines attach equally well to fibronectin but, like cytoplasmically truncated α5β1, αvβ1 fails to protect cells against apoptosis induced by serum deprivation (Zhang et al., supra, 1995; and Matter and Ruoslahti, supra, 2001).
Experiments with extracellular matrix proteins were performed as follows. Cells were plated onto uncoated tissue culture plates or onto bacterial culture plates coated with fibronectin, vitronectin or collagen, and allowed to attach in the presence of serum. The attachment was equal on all of these surfaces. The cells were then transfected with 10 μg of Bit1 expression plasmid; where indicated, cells were treated with a control IgG of unrelated specificity or monoclonal anti-human α5 antibody (Chemicon), both at 10 μg/ml. Cell death was measured by trypan blue staining 48 hours after the transfection.

B1: AES residues 106-197: AES deletion mutant, amino-terminal fusion with GFP (protein, UniProt Q08117 106-197, looked up, fragment)
chain: GAIERAKQVTAPELNSIIRQQLQAHQLSQLQALALPLTPLPVGLQPPSLPAVSAGTGLLSLSALGSQAHLSKEDKNGHDGDTHQEDDGEKSD
modifications: GFP fusion
notes: AES deletion mutant, amino-terminal fusion with GFP
B1 was tested, and the “pro-apoptotic activity of deletion constructs” value (CHO cells [1]) was “no apoptotic activity”.

B2: p35: caspase inhibitor protein, transfected expression construct (protein, UniProt P08160 1-299, looked up)
Early 35 kDa protein: MCVIFPVEIDVSQTIIRDCQVDKQTRELVYINKIMNTQLTKPVLMMFNISGPIRSVTRKNNNLRDRIKSKVDEQFDQLERDYSDQMDGFHDSIKYFKDEHYSVSCQNGSVLKSKFAKILKSHDYTDKKSIEAYEKYCLPKLVDERNDYYVAVCVLKPGFENGSNQVLSFEYNPIGNKVIVPFAHEINDTGLYEYDVVAYVDSVQFDGEQFEEFVQSLILPSSFKNSEKVLYYNEASKNKSMIYKALEFTTESSWGKSEKYNWKIFCNGFIYDKKSKVLYVKLHNVTSALNKNVILNTIK
With B2 the “effect on apoptosis induced by Bit1” value [2] was “little or no effect”.

B3: AES: human AES, 197 residue Groucho/TLE family protein (SEQ ID NO:6) that associates with Bit1 (protein, listed as Homo sapiens)
chain: MMFPQSRHSGSSHLPQQLKFTTSDSCDRIKDEFQLLQAQYHSLKLECDKLASEKSEMQRHYVMYYEMSYGLNIEMHKQAEIVKRLNGICAQVLPYLSQEHQQQVLGAIERAKQVTAPELNSIIRQQLQAHQLSQLQALALPLTPLPVGLQPPSLPAVSAGTGLLSLSALGSQAHLSKEDKNGHDGDTHQEDDGEKSD
B3 was tested, and the Bcl-2 expression (19,000 human cDNAs; Bit1 and AES stable cell lines) was “not measurably altered”, the “Microarray result: gene induced” value (19,000 human cDNAs; at least a two-fold induction, value is the gene) was “DNA replication licensing factor; also recorded: NIK-related kinase 17; also recorded: CMP-N-acetylneuraminic acid” and the “Microarray result: gene suppressed” value (19,000 human cDNAs; at least a two-fold suppression, value is the gene) was “Heat shock 70 KD protein 1A; also recorded: Thymosin β-4; also recorded: KCNAB2; also recorded: FLJ10386; also recorded: NET-5; also recorded: SRY-related HMG-box gene 4”. For the same molecule, the “Northern result, suppression of Thymosin β-4” value (Thymosin β-4) was 4 fold, the “Northern result, suppression of Heat Shock 70 kD protein 1A” value [3] was 3 fold and the “effect on viability of 293T cells” value (HEK 293T cells) was “no effect on the viability”. For the same molecule, the Bcl-2 promoter activity (Bcl-2 promoter) was “down-regulate”, the “time within which CHO cells receiving GFP-AES died” value (CHO cells [4]; GFP-AES fusion protein) was at most 48 h and the “apoptosis induction in CHO cells” value (CHO cells [5]) was “induced apoptosis”.

B4: vitronectin: extracellular matrix protein coated on culture dishes (SIGMA) (protein, UniProt P04004 20-478, looked up)
Vitronectin: DQESCKGRCTEGFNVDKKCQCDELCSYYQSCCTDYTAECKPQVTRGDVFTMPEDEYTVYDDGEEKNNATVHEQVGGPSLTSDLQAQSKGNPEQTPVLKPEEEAPAPEVGASKPEGIDSRPETLHPGRPQPPAEEELCSGKPFDAFTDLKNGSLFAFRGQYCYELDEKAVRPGYPKLIRDVWGIEGPIDAAFTRINCQGKTYLFKGSQYWRFEDGVLDPDYPRNISDGFDGIPDNVDAALALPAHSYSGRERVYFFKGKQYWEYQFQHQPSQEECEGSSLSAVFEHFAMMQRDSWEDIFELLFWGRTSAGTRQPQFISRDWHGVPGQVDAAMAGRIYISGMAPRPSLAKKQRFRHRNRKGYRSQRGHSRGRNQNSRRPSRATWLSLFSSEESNLGANNYDDYRMDWLVPATCEPIQSVFFFSGDKYYRVNLRTRRVDTVDPPYPRSIAQYWLGCPAPGHL
For B4, the “protection from Bit1-induced apoptosis” value [6] was “largely protected”.

B5: TLE2: TLE family protein (protein, UniProt Q04725 1-743, looked up)
Transducin-like enhancer …: MYPQGRHPTPLQSGQPFKFSILEICDRIKEEFQFLQAQYHSLKLECEKLASEKTEMQRHYVMYYEMSYGLNIEMHKQAEIVKRLSGICAQIIPFLTQEHQQQVLQAVERAKQVTVGELNSLIGQQLQPLSHHAPPVPLTPRPAGLVGGSATGLLALSGALAAQAQLAAAVKEDRAGVEAEGSRVERAPSRSASPSPPESLVEEERPSGPGGGGKQRADEKEPSGPYESDEDKSDYNLVVDEDQPSEPPSPATTPCGKVPICIPARRDLVDSPASLASSLGSPLPRAKELILNDLPASTPASKSCDSSPPQDASTPGPSSASHLCQLAAKPAPSTDSVALRSPLTLSSPFTTSFSLGSHSTLNGDLSVPSSYVSLHLSPQVSSSVVYGRSPVMAFESHPHLRGSSVSSSLPSIPGGKPAYSFHVSADGQMQPVPFPSDALVGAGIPRHARQLHTLAHGEVVCAVTISGSTQHVYTGGKGCVKVWDVGQPGAKTPVAQLDCLNRDNYIRSCKLLPDGRSLIVGGEASTLSIWDLAAPTPRIKAELTSSAPACYALAVSPDAKVCFSCCSDGNIVVWDLQNQTMVRQFQGHTDGASCIDISDYGTRLWTGGLDNTVRCWDLREGRQLQQHDFSSQIFSLGHCPNQDWLAVGMESSNVEILHVRKPEKYQLHLHESCVLSLKFASCGRWFVSTGKDNLLNAWRTPYGASIFQSKESSSVLSCDISRNNKYIVTGSGDKKATVYEVVY
For B5, the “effect on apoptosis induced by AES” value (CHO cells [4]; rounded-up GFP cells scored 48 hours later) was “modestly suppresses”.

Source: patent publication US8017326B2, “Methods of modulating cell death based on the Bit-1/AES regulatory pathway” (Sanford-Burnham Medical Research Institute, priority 2002, dated 2011)
